B1: ARC CARD domain (amino acids 1-95), wild type [human] / itself (parent)
chain: MGNAQERPSETIDRERKRLVETLQADSGLLLDALLARGVLTGPEYEALDALPDAERRVRRLLLLVQGKGEAACQELLRCAQRTAGAPDPAWDWQH

Variants of: B1
Assay: SEC-MALS
Settings: with itself

| screen value | Variant |
| --- | --- |
| 11.8 kDa | chain 1 R56E R59E |
| 13 kDa | chain 1 D49R |
| 12.8 kDa | chain 1 D49R R59E |
| 12 kDa | chain 1 R59E |
| 13.2 kDa | chain 1 R56E |
